Laboratory results: patent publication US20250320277A1

Key:
[1] = molecular target: CHIKV p62-E1 (Chikungunya virus); experiment: ELISA, plate-coated p62-E1, eight-point mAb dilution
[2] = molecular target: MAYV p62-E1 (Mayaro virus (BeAr 20290)); experiment: as above
[3] = molecular target: CHIKV p62-E1 (Chikungunya virus)
[4] = molecular target: CHIKV p62-E1 (Chikungunya virus); experiment: BLI, mAb on anti-human Fc sensor
[5] = molecular target: CHIKV p62-E1 (Chikungunya virus); experiment: BLI, […], global 1:1 fit; […]

Row | Binder | EC50 [1] [nM] | EC50 [2] [nM] | kon [3] [M⁻¹ s⁻¹] | fold higher binding affinity for CHIKV p62-E1 than MAYV p62-E1 [4] [fold] | Kd [5] [nM]
1 | DC2.M5 (antibody, V domains shown) VH: EVQLVESGGGLVQPGGSLSLACEVSGFILSDHYIDWVRQAPGKGLEWVGRSRNKAKRYTTEYAASVKGRFTISRDDSNNSLYLLMKSLKTEDTAVYFCTRAGYYDKNGDSLDALDIWGQGTMVTVSS VL: DIQVTQSPSSLSASVGDRVTITCRTSQTVSSNLNWYQQRPGKAPKLLISGISDLHSGVPSRFSGSGSGTDSTLTISSLQPEDSATYYCQQSYSLPRTFGQGTKVEIK | 33 | 39 |  |  | 
2 | DC2.M336 (antibody, V domains shown) VH: QVQLVQSGGRLVKPGGSLRLSCAASGFTIIDSYMSWIRQAPGKGLEWISYINPSGSVIYYSDSVKGRFISSRDNAKNSVYLQLSSLRAEDAAVYYCARGIYDQSDAFDLWGQGTTVTVSS VL: DIVLTQSPSSLSASVGDRVTITCRASQGISNSLAWYQQRPGKAPKLLIYGASRLGSGVPSRFSGSGSGADYTLTISGLQPEDFATYYCQQYYITPPMTFGPGTKVDIK | 0.9 | 12.5 |  |  | 
3 | DC2.M301 (antibody, V domains shown) VH: QVQLVQSGAEVKKPGAAVKVSCKASGYTFSGYYIHWVRQAPGQGLEWMGWINPNSGGTDFAQKFQGRVTMTRDTSISTAYMELSRLRSDDTAVYLCSRDPGYTYGYPLGYWGQGTLVTVSS VL: ETTLTQSPGTLSLSPGERATLSCRASQSVSSSYLAWYQQKPGQAPRLLIYGTSSRATGIPDRFSGRGSGTDFTLTISRLEPEDFAVYYCQQYGNSPPYTFGQGTKVDIK | 0.88 |  | 260000 | 10 | 1.6
4 | DC2.M287 (antibody, V domains shown) VH: EVQLVESGGGLVQPGGSLRLSCAASGFTFRDYWMIWVRQTPGKGLEWVANINRNGNEKHYVDSLKGRFTISRDNTKNSLYLQVNGLSAEDTAVYYCVRDSSPSFGPGNYYDAFDIWGQGTTVTVSS VL: DIRVTQSPSSLSASVGDRVTITCRASQDIRNEVGWYQQKPGQAPKVLIFAASTLQSGVPSRFRGSGSGTVFTLTISSLQPEDLATYYCLQDFNYPRTFGQGTKVDIK | 43 |  |  |  | 
5 | DC2.M342 (antibody, V domains shown) VH: QVQLVQSGAEVKKSGSSVTVSCKASGSTFISHAISWVRQAPGEGLEWMGRLIPVSGTPKYAHKFQGRLTITADDSTTTVYLTLRSLRFEDTAVYYCATWDADSTTLLYYFMDVWGKGTTVTVSS VL: DIQVTQSPSTLSASVGDRVTITCRASQSISRWLAWYQQKPGKAPKLLIYKASSLESGVPSRFSGTGSGTEFTLTISSLQPDDFATYYCQQYNSYSTWTFGQGTKLEIK | 35 | 130 |  |  | 
6 | DC2.M17 (antibody, V domains shown) VH: EVQLVESGSELKKPGASVRVSCEASGYSFTSHTIVWMRQAPGQGLECLGWINTNTGNPTYAQGFTGRFVFSLDTSVSTAYLQISSLKAADTAVYYCARVLKCLGGSASCSGHGYYDYGMAVWGQGTTVTVSS VL: DIVLTQSPLSLPVTPGEPASISCRSSQSLLHSNGYNFLHWYLQKPGQSPQLLIYLGSIRASGVPDRFSGSGSGTDFTLKISRVEAEDVGVYYCMQALQTFMYTFGQGTKLEIK | 0.9 |  |  |  | 
